In paper doi:10.1101/2022.04.15.488344 (bioRxiv, 2022):

Molecular target: the molecule itself
Experiment: crystal structure

B1: ERα ligand binding domain (LBD) (305–555) with a Y537S mutation (domain or fragment, UniProt P03372 305-555, looked up)
chain: SLALSLTADQMVSALLDAEPPILYSEYDPTRPFSEASMMGLLTNLADRELVHMINWAKRVPGFVDLTLHDQVHLLECAWLEILMIGLVWRSMEHPGKLLFAPNLLLDRNQGKCVEGMVEIFDMLLATSSRFRMMNLQGEEFVCLKSIILLNSGVYTFLSSTLKSLEEKDHIHRVLDKITDTLIHLMAKAGLTLQQQHQRLAQLLLILSHIRHMSNKGMEHLYSMKCKNVVPLSDLLLEMLDAHRLHAPTSR
  stoichiometry N: 2
